This test relates to sera from colon cancer patients. Put plainly: Spot assay: reactivity of serologically defined colon cancer antigens with colon cancer patient sera. Particulars: reactive sera/sera tested; includes autologous where applicable; sera 1:200. In kind it is binding, human. How it is done: Serum samples from patients with colon cancer were screened using a modification of the plaque assay, termed a spot assay. In this method, 80×120 mm nitrocellulose membranes were precoated with a film of NZY/0.7% Agarose/2.5 mM IPTG and placed on a reservoir layer of NZY/0.7% Agarose in a 86×128 mm Omni Tray (Nalge Nunc International Corp., Naperville, Ill.). Approximately 1.0×10^5 pfU of monoclonal phage encoding individual serologically defined colon cancer antigens, in a volume of 20 μl, were mixed with 20 μl of exponentially growing E. coli XL-1 Blue MRF and spotted (0.7-μl aliquots) on the precoated nitrocellulose membranes. Membranes were incubated for 15 hours at 37° C. A total of 75 different serologically defined colon cancer antigens were spotted in duplicate per nitrocellulose membrane. The agarose film was then removed from the membrane and the filters were processed for reactivity with individual serum samples (1:200 dilution), as described in Scanlan, et al., Int. J. Cancer 76:652-658 (1998) and Scanlan, et al., Int. J. Cancer 83:456-64, (1999).

Results on one molecule are retold here after patent US7803382B2, “Method for inducing immune response to NY-CO-58” (Ludwig Institute for Cancer Research Ltd., priority 2001, dated 2010).

B1: TNKL (BC-203): serologically defined colon cancer antigen, protein SEQ ID NO:26 (protein, listed as Homo sapiens)
chain: QGAQRGARVGAAMGLRRSGDSREPSGPGPERVFSGGPRPPARGAGAPAPVAGAVAGCGGGQDHVGSPLRRRGSGLRDAAAEAVEPAARELFEACRNGDVERVKRLVTPEKVNSRDTAGRKSTPLHFAAGFGRKDVVEYLLQNGANVQARDDGGLIPLHNACSFGHAEVVNLLLRHGADPNARDNWNYTPLHEAAIKGKIDVCIVLLQHGAEPTIRNTDGRTALDLADPSAKAVLTGEYKKDELLESARSGNEEKMMALLTPLNVNCHASDGRKSTPLHLAAGYNRVKIVQLLLQHGADVHAKDKGDLVPLHNACSYGHYEVTELLVKHGACVNAMDLWQFTPLHEAASKNRVEVCSLLLSYGADPTLLNCHNKSAIDLAPTPQLKERLAYEFKGHSLLQAAREADVTRIKKHLSLEMVNFKHPQTHETALHCAAASPYPKRKQICELLLRKGANINEKTKEFLTPLHVASEKAHNDVVEVVVKHEAKVNALDNLGQTSLHRAAYCGHLQTCRLLLSYGCDPNIISLQGFTALQMGNENVQQLLQEGISLGNSEADRQLLEAAKAGDVETVKKLCTVQSVNCRDIEGRQSTPLHFAAGYNRVSVVEYLLQHGADVHAKDKGGLVPLHNACSYGHYEVAELLVKHGAVVNVADLWKFTPLHEAAAKGKYEICKLLLQHGADPTKKNRDGNTPLDLVKDGDTDIQDLLRGDAALLDAAKKGCLARVKKLSSPDNVNCRDTQGRHSTPLHLAAGYNNLEVAEYLLQHGADVNAQDKGGLIPLHNAASYGHVDVAALLIKYNACVNATDKWAFTPLHEAAQKGRTQLCALLLAHGADPTLKNQEGQTPLDLVSADDVSALLTAAMPPSALPSCYKPQVLNGVRSPGATADALSSGPSSPSSLSAASSLDNLSGSFSELSSVVSSSGTEGASSLEKKEVPGVDFSITQFVRNLGLEHLMDIFEREQITLDVLVEMGHKELKEIGINAYGHRHKLIKGVERLISGQQGLNPYLTLNTSGSGTILIDLSPDDKEFQSVEEEMQSTVREHRDGGHAGGIFNRYNILKIQKVCNKKLWERYTHRRKEVSEENHNHANERMLFHGSPFVNAIIHKGFDERHAYIGGMFGAGIYFAENSSKSNQYVYGIGGGTGVQFTKTDLVTFATAAALLPGNLGKVFPAVQCNENGTSPPGHHSVTGRPSVNGLALAEYVIYRGEQAYPEYLITYQIMRPEGMVDG
B1: the “Reactivity of individual antigens” value is 6/75.
